Measurements as given in the supplement of paper PMC11780869.

Test system: Bacillus subtilis
Test: cleaved RNA product abundance (RNA/gDNA barcode ratio) relative to median wild-type variant (ratio to wild type); higher = more accumulation of the downstream cleavage product
Settings: cleavage site: cggR-gapA (positions -7 to +36 mutated)
Outline: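 Truncated aprE or tetM reporter mRNAs with barcoded RNase Y cleavage-site windows, mutagenized from oligos at a 9% error rate, sat in the B. subtilis chromosome. Cells grew in LB at 37°C from OD600 0.0003 to 0.3. Gel-selected cleaved RNA was reverse transcribed and its barcodes sequenced with those from genomic DNA, collapsing by UMI. Cleaved product abundance equals the RNA:gDNA barcode ratio per construct over the median construct with the unmutated site.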

[1] = experiment (reporter, strain, medium): exp 2b: truncated aprE reporter, strain BJT200
[2] = experiment (reporter, strain, medium): exp 4a: truncated aprE reporter, strain BJT201 with 2% xylose (RNase J1 expressed)
[3] = experiment (reporter, strain, medium): exp 6: tetM reporter, strain 168

Row | Sequence | cleaved RNA product abundance [1] | cleaved RNA product abundance [2] | cleaved RNA product abundance [3]
1 | ACAGACGAAGGAGCCGCAAAGAAGTTATTAAGGTATGTATAATCCCTCAATATAAATATCTCTCACTTATTTAAA | 0.108 | 0.127 | –
2 | ACAGACGAAGGAGCCGCAAAGAAGTTATTAAGGTATTAATAATCCCTCAATATAAATATCTCTCACTTATTTAAA | 0.0984 | 0.169 | –
3 | ACAGACGAAGGAGCCGCAAAGAAGTTATTAAGGTCTGAATAATCCCTCAATATAAATATCTCTCACTTATTTAAA | – | 0.0753 | 0.101
4 | ACAGACGAAGGAGCCGCAAAGAAGTTATTAAGGTTTGAATAATCCCTCAATATAAATATCTCTCACTTATTTAAA | 0.102 | 0.144 | –
5 | ACAGACGAAGGAGCCGCAAAGAAGTTATTAAGTAATAAATAATCCCTCAATATAAATATCTCTCACTTATTTAAA | – | 0.0519 | –
6 | ACAGACGAAGGAGCCGCAAAGAAGTTATTAAGTAATGAATAACCCCTCAATATAAATATCTCTCACTTATTTAAA | 0.084 | 0.127 | –
7 | ACAGACGAAGGAGCCGCAAAGAAGTTATTAAGTAATGAATAATCCCTCAATATAAATATCTCTCACTTATTTAAA | 0.102 | 0.099 | –
8 | ACAGACGAAGGAGCCGCAAAGAAGTTATTAAGTCATGAATAATCCCTCAATATAAATATCTCTCACTTATTTAAA | 0.0957 | 0.106 | –
9 | ACAGACGAAGGAGCCGCAAAGAAGTTATTAAGTGAAGAATAATCCCTCAATATAAATATCTCTCACTTATTTAAA | – | 0.0841 | –
10 | ACAGACGAAGGAGCCGCAAAGAAGTTATTAAGTGACGAATAATCCCTCAATATAAATATCTCTCACTTATTTAAA | – | 0.0518 | –
11 | ACAGACGAAGGAGCCGCAAAGAAGTTATTAAGTGAGGAATAATCCCTCAATATAAATATCTCTCACTTATTTAAA | – | 0.16 | –
12 | ACAGACGAAGGAGCCGCAAAGAAGTTATTAAGTGATAAATAATCCCTCAATATAAATATCTCTCACTTATTTAAA | – | 0.103 | 0.113
13 | ACAGACGAAGGAGCCGCAAAGAAGTTATTAAGTGATAAATAATTCCTCAATATAAATATCTCTCACTTATTTAAA | – | 0.0999 | –
14 | ACAGACGAAGGAGCCGCAAAGAAGTTATTAAGTGATCAATAATCCCTCAATATAAATATCTCTCACTTATTTAAA | 0.0674 | 0.137 | –
15 | ACAGACGAAGGAGCCGCAAAGAAGTTATTAAGTGATGAAAAATCCCTCAATATAAATATCTCTCACTTATTTAAA | 0.118 | 0.0967 | –
16 | ACAGACGAAGGAGCCGCAAAGAAGTTATTAAGTGATGAACAATCCCTCAATATAAATATCTCTCACTTATTTAAA | – | 0.109 | –
17 | ACAGACGAAGGAGCCGCAAAGAAGTTATTAAGTGATGAAGAATCCCTCAATATAAATATCTCTCACTTATTTAAA | 0.0943 | 0.0723 | –
18 | ACAGACGAAGGAGCCGCAAAGAAGTTATTAAGTGATGAATAAACCCTCAATATAAATATCTCTCACTTATTTAAA | 0.113 | 0.0945 | –
19 | ACAGACGAAGGAGCCGCAAAGAAGTTATTAAGTGATGAATAACCCCTCAATATAAATATCTCTCACTTATTTAAA | – | 0.109 | –
20 | ACAGACGAAGGAGCCGCAAAGAAGTTATTAAGTGATGAATAATACCTCAATATAAATATCTCTCACTTATTTAAA | 0.109 | 0.0926 | –
21 | ACAGACGAAGGAGCCGCAAAGAAGTTATTAAGTGATGAATAATCACTCAATATAAATAACTCTCACTTATTTAAA | – | 1.16 | –
22 | ACAGACGAAGGAGCCGCAAAGAAGTTATTAAGTGATGAATAATCACTCAATATAAATATCTCTCACTTATTTAAA | 0.81 | 1.13 | –
23 | ACAGACGAAGGAGCCGCAAAGAAGTTATTAAGTGATGAATAATCCATCAATATAAATATCTCTCACTTATTTAAA | 0.153 | 0.165 | –
24 | ACAGACGAAGGAGCCGCAAAGAAGTTATTAAGTGATGAATAATCCCACAATATAAATATCTCTCACTTATTTAAA | 0.0986 | 0.0805 | –
25 | ACAGACGAAGGAGCCGCAAAGAAGTTATTAAGTGATGAATAATCCCCCAATATAAATATCTCTCACTTATTTAAA | – | 0.127 | –

Row | Sequence | cleaved RNA product abundance [1] | cleaved RNA product abundance [2] | cleaved RNA product abundance [3]
26 | ACAGACGAAGGAGCCGCAAAGAAGTTATTAAGTGATGAATAATCCCTAAATATAAATATCTCTCACTTATTTAAA | 0.143 | 0.146 | –
27 | ACAGACGAAGGAGCCGCAAAGAAGTTATTAAGTGATGAATAATCCCTCAAAATAAATATCTCTCACTTATTTAAA | 0.102 | 0.124 | –
28 | ACAGACGAAGGAGCCGCAAAGAAGTTATTAAGTGATGAATAATCCCTCAACATAAATATCTCTCACTTATTTAAA | – | 0.0935 | –
29 | ACAGACGAAGGAGCCGCAAAGAAGTTATTAAGTGATGAATAATCCCTCAATAAAAATATCTCTCACTTATTTAAA | – | 0.0655 | 0.11
30 | ACAGACGAAGGAGCCGCAAAGAAGTTATTAAGTGATGAATAATCCCTCAATACAAATATCTCTCACTTATTTAAA | 0.102 | 0.057 | –
31 | ACAGACGAAGGAGCCGCAAAGAAGTTATTAAGTGATGAATAATCCCTCAATAGAAATATCTCTCACTTATTTAAA | – | 0.0533 | –
32 | ACAGACGAAGGAGCCGCAAAGAAGTTATTAAGTGATGAATAATCCCTCAATATAAAAATCTCTCACTTATTTAAA | – | 0.124 | –
33 | ACAGACGAAGGAGCCGCAAAGAAGTTATTAAGTGATGAATAATCCCTCAATATAAACATCTCTCACTTATTTAAA | – | 0.116 | –
34 | ACAGACGAAGGAGCCGCAAAGAAGTTATTAAGTGATGAATAATCCCTCAATATAAATAACTCTCACTTATTTAAA | – | 0.119 | –
35 | ACAGACGAAGGAGCCGCAAAGAAGTTATTAAGTGATGAATAATCCCTCAATATAAATACCTCTCACTTATTTAAA | – | 0.105 | –
36 | ACAGACGAAGGAGCCGCAAAGAAGTTATTAAGTGATGAATAATCCCTCAATATAAATATCTCTCACTTATTTAAA | 0.109 | 0.126 | 0.127
37 | ACAGACGAAGGAGCCGCAAAGAAGTTATTAAGTGATGAATAATCCCTCAATATAAATCTCTCTCACTTATTTAAA | 0.116 | – | –
38 | ACAGACGAAGGAGCCGCAAAGAAGTTATTAAGTGATGAATAATCCCTCAATATAACTATCTCTCACTTATTTAAA | 0.146 | – | –
39 | ACAGACGAAGGAGCCGCAAAGAAGTTATTAAGTGATGAATAATCCCTCAATATAATTATCTCTCACTTATTTAAA | – | 0.0685 | –
40 | ACAGACGAAGGAGCCGCAAAGAAGTTATTAAGTGATGAATAATCCCTCAATATACATATCTCTCACTTATTTAAA | 0.0962 | 0.19 | –
41 | ACAGACGAAGGAGCCGCAAAGAAGTTATTAAGTGATGAATAATCCCTCAATATATATATCTCTCACTTATTTAAA | 0.115 | 0.107 | –
42 | ACAGACGAAGGAGCCGCAAAGAAGTTATTAAGTGATGAATAATCCCTCAATCTAAATATCTCTCACTTATTTAAA | – | 0.0609 | –
43 | ACAGACGAAGGAGCCGCAAAGAAGTTATTAAGTGATGAATAATCCCTCAATTTAAATATCTCTCACTTATTTAAA | 0.0957 | 0.0598 | –
44 | ACAGACGAAGGAGCCGCAAAGAAGTTATTAAGTGATGAATAATCCCTCATTATAAATATCTCTCACTTATTTAAA | 0.0978 | 0.151 | –
45 | ACAGACGAAGGAGCCGCAAAGAAGTTATTAAGTGATGAATAATCCCTCCATATAAATATCTCTCACTTATTTAAA | – | 0.104 | –
46 | ACAGACGAAGGAGCCGCAAAGAAGTTATTAAGTGATGAATAATCCCTCTATATAAATATCTCTCACTTATTTAAA | 0.109 | 0.128 | –
47 | ACAGACGAAGGAGCCGCAAAGAAGTTATTAAGTGATGAATAATCCCTGAATATAAATATCTCTCACTTATTTAAA | 0.0871 | 0.0547 | –
48 | ACAGACGAAGGAGCCGCAAAGAAGTTATTAAGTGATGAATAATCCCTTAATATAAATATCTCTCACTTATTTAAA | 0.6 | 0.388 | –
49 | ACAGACGAAGGAGCCGCAAAGAAGTTATTAAGTGATGAATAATCCGTCAATATAAATATCTCTCACTTATTTAAA | 0.103 | 0.0842 | –
50 | ACAGACGAAGGAGCCGCAAAGAAGTTATTAAGTGATGAATAATCCTTCAATATAAATATCTCTCACTTATTTAAA | 0.112 | 0.145 | –
